Our source for the stoichiometry N values is publication PMC7025878.

For this test, the target named is GluD1△851 (rat GluD1 receptor truncated C-terminally at residue 851) (rat). Nature of the test: cryo-EM structure.

For “GluD1△851 (rat GluD1 receptor truncated C-terminally at residue 851)”, the stoichiometry N was 4.

As usually defined, the stoichiometry N is a count of units in the complex or per binding partner.
